No end group written: not given here. *: point of attachment. Biotin = O=C1N[C@H]2[C@H](CS[C@H]2CCCCC(=O)*)N1
T1: GP11 (human)
T1 peptide: Biotin-VYPPEEET

T2: GP13 (human)
T2 peptide: Biotin-PPEEETGE

T3: GP12 (human)
T3 peptide: Biotin-YPPEEETG

T4: GP7 (human)
T4 peptide: Biotin-SVRTVYPP

T5: GP10 (human)
T5 peptide: Biotin-TVYPPEEE

T6: GP5-8 (human, biotin at the N-terminus)
T6 construct: GP5 with alanine at position 8 (R8A), already in the entry
T6 peptide: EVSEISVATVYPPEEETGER

T7: GP5-11 (human, biotin at the N-terminus)
T7 construct: GP5 with alanine at position 11 (Y11A), already in the entry
T7 peptide: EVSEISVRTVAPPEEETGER

T8: GP5-5 (human, biotin at the N-terminus)
T8 construct: GP5 with alanine at position 5 (I5A), already in the entry
T8 peptide: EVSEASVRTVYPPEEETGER

T9: GP5-7 (human, biotin at the N-terminus)
T9 construct: GP5 with alanine at position 7 (V7A), already in the entry
T9 peptide: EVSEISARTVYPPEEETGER

T10: GP5-13 (human, biotin at the N-terminus)
T10 construct: GP5 with alanine at position 13 (P13A), already in the entry
T10 peptide: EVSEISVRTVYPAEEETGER

T11: GP5-12 (human, biotin at the N-terminus)
T11 construct: GP5 with alanine at position 12 (P12A), already in the entry
T11 peptide: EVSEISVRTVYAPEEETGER

T12: GP5-3 (human, biotin at the N-terminus)
T12 construct: GP5 with alanine at position 3 (S3A), already in the entry
T12 peptide: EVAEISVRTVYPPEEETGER

T13: GP5-9 (human, biotin at the N-terminus)
T13 construct: GP5 with alanine at position 9 (T9A), already in the entry
T13 peptide: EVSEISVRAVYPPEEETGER

T14: GP5-20 (human, biotin at the N-terminus)
T14 construct: GP5 with alanine at position 20 (R20A), already in the entry
T14 peptide: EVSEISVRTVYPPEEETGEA

T15: GP5-14 (human, biotin at the N-terminus)
T15 construct: GP5 with alanine at position 14 (E14A), already in the entry
T15 peptide: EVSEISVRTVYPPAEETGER

T16: GP5-19 (human, biotin at the N-terminus)
T16 construct: GP5 with alanine at position 19 (E19A), already in the entry
T16 peptide: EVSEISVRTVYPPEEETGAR

T17: GP5-18 (human, biotin at the N-terminus)
T17 construct: GP5 with alanine at position 18 (G18A), already in the entry
T17 peptide: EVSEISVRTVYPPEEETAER

T18: GP5-15 (human, biotin at the N-terminus)
T18 construct: GP5 with alanine at position 15 (E15A), already in the entry
T18 peptide: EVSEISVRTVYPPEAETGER

T19: GP5-2 (human, biotin at the N-terminus)
T19 construct: GP5 with alanine at position 2 (V2A), already in the entry
T19 peptide: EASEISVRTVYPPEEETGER

T20: GP5-6 (human, biotin at the N-terminus)
T20 construct: GP5 with alanine at position 6 (S6A), already in the entry
T20 peptide: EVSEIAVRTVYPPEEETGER

T21: GP5-17 (human, biotin at the N-terminus)
T21 construct: GP5 with alanine at position 17 (T17A), already in the entry
T21 peptide: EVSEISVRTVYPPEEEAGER

T22: GP5-16 (human, biotin at the N-terminus)
T22 construct: GP5 with alanine at position 16 (E16A), already in the entry
T22 peptide: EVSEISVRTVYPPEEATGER

T23: GP5-4 (human, biotin at the N-terminus)
T23 construct: GP5 with alanine at position 4 (E4A), already in the entry
T23 peptide: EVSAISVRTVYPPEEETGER

T24: GP5-10 (human, biotin at the N-terminus)
T24 construct: GP5 with alanine at position 10 (V10A), already in the entry
T24 peptide: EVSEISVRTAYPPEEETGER

T25: GP5-1 (human, biotin at the N-terminus)
T25 construct: GP5 with alanine at position 1 (E1A), already in the entry
T25 peptide: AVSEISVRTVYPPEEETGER


Tests used:
GP11 = target: T1, GP11; assay: peptide ELISA, summary of Table 23
Text: (§1) These peptides were attached to the surface of a streptavidin coated plate via a biotin moiety that was present at the N-terminus of each peptide.

GP13 = target: T2, GP13; assay: peptide ELISA, summary of Table 23
Text: as §1

GP12 = target: T3, GP12; assay: peptide ELISA, summary of Table 23
Text: as §1

GP7 = target: T4, GP7; assay: peptide ELISA, summary of Table 23
Text: as §1

GP10 = target: T5, GP10; assay: peptide ELISA, summary of Table 23
Text: as §1

GP5-8 = target: T6, GP5-8; assay: ELISA, biotin-peptide on streptavidin plate, Fab 0.5 ug/ml
GP5-11 = target: T7, GP5-11; assay: as above
GP5-5 = target: T8, GP5-5; assay: as above
GP5-7 = target: T9, GP5-7; assay: as above
GP5-13 = target: T10, GP5-13; assay: as above
GP5-12 = target: T11, GP5-12; assay: as above
GP5-3 = target: T12, GP5-3; assay: as above
GP5-9 = target: T13, GP5-9; assay: as above
GP5-20 = target: T14, GP5-20; assay: as above
GP5-14 = target: T15, GP5-14; assay: as above
GP5-19 = target: T16, GP5-19; assay: as above
GP5-18 = target: T17, GP5-18; assay: as above
GP5-15 = target: T18, GP5-15; assay: as above
GP5-2 = target: T19, GP5-2; assay: as above
GP5-6 = target: T20, GP5-6; assay: as above
GP5-17 = target: T21, GP5-17; assay: as above
GP5-16 = target: T22, GP5-16; assay: as above
GP5-4 = target: T23, GP5-4; assay: as above
GP5-10 = target: T24, GP5-10; assay: as above
GP5-1 = target: T25, GP5-1; assay: as above

| Binder | binding result (GP11) | binding result (GP13) | binding result (GP12) | binding result (GP7) | binding result (GP10) | binding signal (ELISA) (GP5-8) | binding signal (ELISA) (GP5-11) | binding signal (ELISA) (GP5-5) | binding signal (ELISA) (GP5-7) | binding signal (ELISA) (GP5-13) | binding signal (ELISA) (GP5-12) | binding signal (ELISA) (GP5-3) | binding signal (ELISA) (GP5-9) | binding signal (ELISA) (GP5-20) | binding signal (ELISA) (GP5-14) | binding signal (ELISA) (GP5-19) | binding signal (ELISA) (GP5-18) | binding signal (ELISA) (GP5-15) | binding signal (ELISA) (GP5-2) | binding signal (ELISA) (GP5-6) | other results |
| --- | --- | --- | --- | --- | --- | --- | --- | --- | --- | --- | --- | --- | --- | --- | --- | --- | --- | --- | --- | --- | --- |
| TPP-7790 Fab (Fab, V domains shown, Tested as Fab with a 6xHIS tag) VH: EVQLVQSGAEVKKPGASVKVSCKASGYTFTTYAIHWVRQAPGQGLEWMGYINPSSGYTRYNPKFKHRVTMTRDKSTSTAYMELRSLRSDDTAVYYCWTGTRDYWGQGTTVTVSS VL: DIQLTQSPSFLSASVGDRVTITCRASSSVRYIYWFQQKPGKAPKLLIYATSFLQSGVPSRFSGSGSGTEYTLTISSLQPEDFATYYCHQRNSFPYTFGQGTKLEIK | no binding | no binding | no binding | no binding | no binding | 6790 | 1 | 6270 | 6700 | 6570 | 6450 | 6680 | 6810 | 6440 | 1280 | 6470 | 6400 | 6720 | 6360 | 6520 | binding signal (ELISA) (GP5-17): 6870; binding signal (ELISA) (GP5-16): 6540; binding signal (ELISA) (GP5-4): 6540; binding signal (ELISA) (GP5-10): 5910; binding signal (ELISA) (GP5-1): 6210 |
| TPP-7792 Fab (Fab, V domains shown, Tested as Fab with a 6xHIS tag) VH: EVQLVQSGAEVKKPGASVKVSCKASGYTFTTYAIHWVRQAPGQGLEWMGYINPSSGYTRYNPKFKGRVTMTRDKSTSTAYMELRSLRSDDTAVYYCWTGTRDYWGQGTTVTVSS VL: DIQLTQSPSFLSASVGDRVTITCRASSSVRYIYWFQQKPGKAPKLLIYATSFRQSGVPSRFSGSGSGTEYTLTISSLQPEDFATYYCHQRNSFPYTFGQGTKLEIK | no binding | no binding | no binding | no binding | no binding | 6700 | 2 | 7400 | 6690 | 6960 | 6790 | 7370 | 7270 | 7170 | 2670 | 6980 | 7150 | 7250 | 6700 | 6660 | binding signal (ELISA) (GP5-17): 7410; binding signal (ELISA) (GP5-16): 6680; binding signal (ELISA) (GP5-4): 6630; binding signal (ELISA) (GP5-10): 6210; binding signal (ELISA) (GP5-1): 6800 |

From patent US20190359687A1 (Bayer, published 2019)
